Laboratory results reported in patent publication US10428149 (dated 2019).

Legend:
EGFR [1] = target: T1, EGFR (human, UniProt P00533); test: ELISA
TRAIL-R2 (DR5) [2] = target: T2, TRAIL-R2 (DR5) (human, UniProt O14763); test: ELISA
EGFR [3] = target: T1, EGFR; test: FACS, Colo205 cells
HER3 [4] = target: T3, HER3 (human, UniProt P21860); test: FACS, Colo205 cells
HER3 [5] = target: T3, HER3; test: ELISA
TRAIL-R2 (DR5) [6] = target: T2, TRAIL-R2 (DR5); test: FACS, Colo205 cells

EC50 (EGFR [1]) [nM]	EC50 (TRAIL-R2 (DR5) [2]) [nM]	EC50 (EGFR [3]) [nM]	EC50 (HER3 [4]) [nM]	EC50 (HER3 [5]) [nM]	EC50 (TRAIL-R2 (DR5) [6]) [nM]	Binder
0.77	0.79	0.87				Dbhu225-scTRAIL3-FLVGGGPQRVA (antibody) DYKDDDDKGGGGSGTEVQLVESGGGLVQPGGSLRLSCAASGFSLTNYGVHWVRQAPGKGLEWLGVIWSGGNTDYNTPFTSRFTISRDNSKNTLYLQMNSLRAEDTAVYYCARALTYYDYEFAYWGQGTTVTVSSGGGGSDIQLTQSPSFLSASVGDRVTITCRASQSIGTNIHWYQQKPGKAPKLLIKYASESISGVPSRFSGSGSGTEFTLTISSLQPEDFATYYCQQNNNWPTTFGAGTKLEIKRAAAGGSGGGPQRVAAHITGTRGRSNTLSSPNSKNEKALGRKINSWESSRSGHSFLSNLHLRNGELVIHEKGFYYIYSQTYFRFQEEIKENTKNDKQMVQYIYKYTSYPDPILLMKSARNSCWSKDAEYGLYSIYQGGIFELKENDRIFVSVTNEHLIDMDHEASFFGAFLVGGGPQRVAAHITGTRGRSNTLSSPNSKNEKALGRKINSWESSRSGHSFLSNLHLRNGELVIHEKGFYYIYSQTYFRFQEEIKENTKNDKQMVQYIYKYTSYPDPILLMKSARNSCWSKDAEYGLYSIYQGGIFELKENDRIFVSVTNEHLIDMDHEASFFGAFLVGGGPQRVAAHITGTRGRSNTLSSPNSKNEKALGRKINSWESSRSGHSFLSNLHLRNGELVIHEKGFYYIYSQTYFRFQEEIKENTKNDKQMVQYIYKYTSYPDPILLMKSARNSCWSKDAEYGLYSIYQGGIFELKENDRIFVSVTNEHLIDMDHEASFFGAFLVG
0.98	1.29	0.86				dsDbhu225-scTRAIL3-FLVGGGPQRVA (antibody) DYKDDDDKGGGGSGTEVQLVESGGGLVQPGGSLRLSCAASGFSLTNYGVHWVRQAPGKCLEWLGVIWSGGNTDYNTPFTSRFTISRDNSKNTLYLQMNSLRAEDTAVYYCARALTYYDYEFAYWGQGTTVTVSSGGGGSDIQLTQSPSFLSASVGDRVTITCRASQSIGTNIHWYQQKPGKAPKLLIKYASESISGVPSRFSGSGSGTEFTLTISSLQPEDFATYYCQQNNNWPTTFGCGTKLEIKRAAAGGSGGGPQRVAAHITGTRGRSNTLSSPNSKNEKALGRKINSWESSRSGHSFLSNLHLRNGELVIHEKGFYYIYSQTYFRFQEEIKENTKNDKQMVQYIYKYTSYPDPILLMKSARNSCWSKDAEYGLYSIYQGGIFELKENDRIFVSVTNEHLIDMDHEASFFGAFLVGGGPQRVAAHITGTRGRSNTLSSPNSKNEKALGRKINSWESSRSGHSFLSNLHLRNGELVIHEKGFYYIYSQTYFRFQEEIKENTKNDKQMVQYIYKYTSYPDPILLMKSARNSCWSKDAEYGLYSIYQGGIFELKENDRIFVSVTNEHLIDMDHEASFFGAFLVGGGPQRVAAHITGTRGRSNTLSSPNSKNEKALGRKINSWESSRSGHSFLSNLHLRNGELVIHEKGFYYIYSQTYFRFQEEIKENTKNDKQMVQYIYKYTSYPDPILLMKSARNSCWSKDAEYGLYSIYQGGIFELKENDRIFVSVTNEHLIDMDHEASFFGAFLVG
			13.1			scFv3M6-Fc-scTRAIL3-… (HER3 arm) (antibody, V domains shown) VH: EVQLLESGGGLVQPGGSLRLSCAASGFTFSHYVMAWVRQAPGKGLEWVSSISSSGGWTLYADSVKGRFTISRDNSKNTLYLQMNSLRAEDTAVYYCTRGLKMATIFDYWGQGTLVTVSS VL: QSALTQPASVSGSPGQSITISCTGTSSDVGSYNVVSWYQQHPGKAPKLIIYEVSQRPSGVSNRFSGSKSGNTASLTISGLQTEDEADYYCSSYAGSSIFVIFGGGTKVTVL
			10.4	5.88		Db3M6-scTRAIL3-… (HER3 arm) (antibody, V domains shown) VH: EVQLLESGGGLVQPGGSLRLSCAASGFTFSHYVMAWVRQAPGKGLEWVSSISSSGGWTLYADSVKGRFTISRDNSKNTLYLQMNSLRAEDTAVYYCTRGLKMATIFDYWGQGTLVTVSS VL: QSALTQPASVSGSPGQSITISCTGTSSDVGSYNVVSWYQQHPGKAPKLIIYEVSQRPSGVSNRFSGSKSGNTASLTISGLQTEDEADYYCSSYAGSSIFVIFGGGTKVTVL
			19.9	11.6		scFv3M6-EHD2-scTRAIL3-… (HER3 arm) (antibody) EVQLLESGGGLVQPGGSLRLSCAASGFTFSHYVMAWVRQAPGKGLEWVSSISSSGGWTLYADSVKGRFTISRDNSKNTLYLQMNSLRAEDTAVYYCTRGLKMATIFDYWGQGTLVTVSSGGGGSGGGGSGGGGSQSALTQPASVSGSPGQSITISCTGTSSDVGSYNVVSWYQQHPGKAPKLIIYEVSQRPSGVSNRFSGSKSGNTASLTISGLQTEDEADYYCSSYAGSSIFVIFGGGTKVTVLAAAGGSGGDFTPPTVKILQSSCDGGGHFPPTIQLLCLVSGYTPGTINITWLEDGQVMDVDLSTASTTQEGELASTQSELTLSQKHWLSDRTYTCQVTYQGHTFEDSTKKCADSN
	1.94				> 100	EHD2-scTRAIL3-FLVGGGPQRVA (designed binder) chain 1: DFTPPTVKILQSSCDGGGHFPPTIQLLCLVSGYTPGTINITWLEDGQVMDVDLSTASTTQEGELASTQSELTLSQKHWLSDRTYTCQVTYQGHTFEDSTKKCADSN chain 2: MDWTWRVFCLLAVAPGAHSLDDYKDDDDKEFGGGPQRVAAHITGTRGRSNTLSSPNSKNEKALGRKINSWESSRSGHSFLSNLHLRNGELVIHEKGFYYIYSQTYFRFQEEIKENTKNDKQMVQYIYKYTSYPDPILLMKSARNSCWSKDAEYGLYSIYQGGIFELKENDRIFVSVTNEHLIDMDHEASFFGAFLVGGGPQRVAAHITGTRGRSNTLSSPNSKNEKALGRKINSWESSRSGHSFLSNLHLRNGELVIHEKGFYYIYSQTYFRFQEEIKENTKNDKQMVQYIYKYTSYPDPILLMKSARNSCWSKDAEYGLYSIYQGGIFELKENDRIFVSVTNEHLIDMDHEASFFGAFLVGGGPQRVAAHITGTRGRSNTLSSPNSKNEKALGRKINSWESSRSGHSFLSNLHLRNGELVIHEKGFYYIYSQTYFRFQEEIKENTKNDKQMVQYIYKYTSYPDPILLMKSARNSCWSKDAEYGLYSIYQGGIFELKENDRIFVSVTNEHLIDMDHEASFFGAFLV
	1.74				5.67	scTRAIL3-FLVGGGPQRVA (designed binder) MDWTWRVFCLLAVAPGAHSLDDYKDDDDKEFGGGPQRVAAHITGTRGRSNTLSSPNSKNEKALGRKINSWESSRSGHSFLSNLHLRNGELVIHEKGFYYIYSQTYFRFQEEIKENTKNDKQMVQYIYKYTSYPDPILLMKSARNSCWSKDAEYGLYSIYQGGIFELKENDRIFVSVTNEHLIDMDHEASFFGAFLVGGGPQRVAAHITGTRGRSNTLSSPNSKNEKALGRKINSWESSRSGHSFLSNLHLRNGELVIHEKGFYYIYSQTYFRFQEEIKENTKNDKQMVQYIYKYTSYPDPILLMKSARNSCWSKDAEYGLYSIYQGGIFELKENDRIFVSVTNEHLIDMDHEASFFGAFLVGGGPQRVAAHITGTRGRSNTLSSPNSKNEKALGRKINSWESSRSGHSFLSNLHLRNGELVIHEKGFYYIYSQTYFRFQEEIKENTKNDKQMVQYIYKYTSYPDPILLMKSARNSCWSKDAEYGLYSIYQGGIFELKENDRIFVSVTNEHLIDMDHEASFFGAFLV
1.25	1.82	0.58				scFvhu225-EHD2-scTRAIL3-FLVGGGPQRVA (antibody) DYKDDDDKGGGGSGTEVQLVESGGGLVQPGGSLRLSCAASGFSLTNYGVHWVRQAPGKGLEWLGVIWSGGNTDYNTPFTSRFTISRDNSKNTLYLQMNSLRAEDTAVYYCARALTYYDYEFAYWGQGTTVTVSSGGGGSGGGGSGGGGSDIQLTQSPSFLSASVGDRVTITCRASQSIGTNIHWYQQKPGKAPKLLIKYASESISGVPSRFSGSGSGTEFTLTISSLQPEDFATYYCQQNNNWPTTFGAGTKLEIKRAAAGGSGGDFTPPTVKILQSSCDGGGHFPPTIQLLCLVSGYTPGTINITWLEDGQVMDVDLSTASTTQEGELASTQSELTLSQKHWLSDRTYTCQVTYQGHTFEDSTKKCADSNGGSGGASSGGGPQRVAAHITGTRGRSNTLSSPNSKNEKALGRKINSWESSRSGHSFLSNLHLRNGELVIHEKGFYYIYSQTYFRFQEEIKENTKNDKQMVQYIYKYTSYPDPILLMKSARNSCWSKDAEYGLYSIYQGGIFELKENDRIFVSVTNEHLIDMDHEASFFGAFLVGGGPQRVAAHITGTRGRSNTLSSPNSKNEKALGRKINSWESSRSGHSFLSNLHLRNGELVIHEKGFYYIYSQTYFRFQEEIKENTKNDKQMVQYIYKYTSYPDPILLMKSARNSCWSKDAEYGLYSIYQGGIFELKENDRIFVSVTNEHLIDMDHEASFFGAFLVGGGPQRVAAHITGTRGRSNTLSSPNSKNEKALGRKINSWESSRSGHSFLSNLHLRNGELVIHEKGFYYIYSQTYFRFQEEIKENTKNDKQMVQYIYKYTSYPDPILLMKSARNSCWSKDAEYGLYSIYQGGIFELKENDRIFVSVTNEHLIDMDHEASFFGAFLVG
	2.83		32.5	8.54		dsDb3M6-scTRAIL3-FLVGGGPQRVA (antibody) DYKDDDDKGGGGSGTEVQLLESGGGLVQPGGSLRLSCAASGFTFSHYVMAWVRQAPGKCLEWVSSISSSGGWTLYADSVKGRFTISRDNSKNTLYLQMNSLRAEDTAVYYCTRGLKMATIFDYWGQGTLVTVSSGGGGSQSALTQPASVSGSPGQSITISCTGTSSDVGSYNVVSWYQQHPGKAPKLIIYEVSQRPSGVSNRFSGSKSGNTASLTISGLQTEDEADYYCSSYAGSSIFVIFGCGTKVTVLAAAGGSGGGPQRVAAHITGTRGRSNTLSSPNSKNEKALGRKINSWESSRSGHSFLSNLHLRNGELVIHEKGFYYIYSQTYFRFQEEIKENTKNDKQMVQYIYKYTSYPDPILLMKSARNSCWSKDAEYGLYSIYQGGIFELKENDRIFVSVTNEHLIDMDHEASFFGAFLVGGGPQRVAAHITGTRGRSNTLSSPNSKNEKALGRKINSWESSRSGHSFLSNLHLRNGELVIHEKGFYYIYSQTYFRFQEEIKENTKNDKQMVQYIYKYTSYPDPILLMKSARNSCWSKDAEYGLYSIYQGGIFELKENDRIFVSVTNEHLIDMDHEASFFGAFLVGGGPQRVAAHITGTRGRSNTLSSPNSKNEKALGRKINSWESSRSGHSFLSNLHLRNGELVIHEKGFYYIYSQTYFRFQEEIKENTKNDKQMVQYIYKYTSYPDPILLMKSARNSCWSKDAEYGLYSIYQGGIFELKENDRIFVSVTNEHLIDMDHEASFFGAFLVG
